Reference: PMC11999266, “Human glutathione transferases catalyze the reaction between glutathione and nitrooleic acid” (The Journal of Biological Chemistry, 2025)

Molecular target: the molecule itself
Experiment: SEC; HiLoad 16/600 Superdex 200, Tris buffer (50 mM, pH 8.0, 150 mM NaCl), calibrated with proteins of known mass; final purification step

B1: Human glutathione transferase M1-1 (hGST M1-1) (enzyme, UniProt P09488 1-218, looked up)
chain: MPMILGYWDIRGLAHAIRLLLEYTDSSYEEKKYTMGDAPDYDRSQWLNEKFKLGLDFPNLPYLIDGAHKITQSNAILCYIARKHNLCGETEEEKIRVDILENQTMDNHMQLGMICYNPEFEKLKPKYLEELPEKLKLYSEFLGKRPWFAGNKITFVDFLVYDVLDLHRIFEPKCLDAFPNLKDFISRFEGLEKISAYMKSSRFLPRPVFSKMAVWGNK
notes: Human glutathione transferase M1 (mu class), ORF of GenBank X08020.1; purified without tags; Homodimer; In the crystal it carries the small-molecule adduct GS-10-NO2-OA in the active site; source: E. coli BL21(DE3), pET22b, purified (GSH-Sepharose, SEC)
**Q.** How did the “stoichiometry N” value turn out when B1 was run?
**A.** The value was 2.

B2: Human glutathione transferase A4-4 (hGST A4-4) (enzyme, UniProt O15217 1-222, looked up)
chain: MAARPKLHYPNGRGRMESVRWVLAAAGVEFDEEFLETKEQLYKLQDGNHLLFQQVPMVEIDGMKLVQTRSILHYIADKHNLFGKNLKERTLIDMYVEGTLDLLELLIMHPFLKPDDQQKEVVNMAQKAIIRYFPVFEKILRGHGQSFLVGNQLSLADVILLQTILALEEKIPNILSAFPFLQEYTVKLSNIPTIKRFLEPGSKKKPPPDEIYVRTVYNIFRP
notes: Human glutathione transferase A4 (alpha class), ORF of GenBank Y13047.1; Homodimer; Expressed as a C-terminal fusion to His-tagged Trx1 with a TEV site in between; the fusion partner was cut off; the printed mass (25,761 Da) may include such a remnant (surmise); source: E. coli BL21(DE3), pET-Trx1b, purified (GSH-Sepharose, TEV cleavage, HisTrap flow through, SEC); not shown: His tag, N-terminal, …
**Q.** With B2 as the protein, how does the “stoichiometry N” value read?
**A.** The value was 2.
